{"source": "patent US20140274782A1", "about": "“AFFINITY REAGENTS AND METHODS FOR DETECTION, PURIFICATION, AND PROTEOMIC ANALYSIS OF METHYLATED PROTEINS” (The Board of Trustees of the Leland Stanford Junior …, priority 2013, published 2014)", "key": {"[1]": {"target": "LPAL2-lipoprotein, Lp(a)-like 2 (LPAL2), transcript variant 1 (human) (UniProt Q16609)", "sequence (Q16609 22-132, change not shown)": "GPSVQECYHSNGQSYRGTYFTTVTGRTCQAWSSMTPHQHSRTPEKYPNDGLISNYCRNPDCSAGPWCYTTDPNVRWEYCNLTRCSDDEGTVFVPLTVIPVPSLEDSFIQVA", "experiment": "ProtoArray, GST-treated control array"}, "[2]": {"target": "C1QTNF6-C1q and tumor necrosis factor related protein 6 (C1QTNF6), transcript variant 1 (human) (UniProt Q9BXI9)", "sequence (Q9BXI9 47-278, change not shown)": "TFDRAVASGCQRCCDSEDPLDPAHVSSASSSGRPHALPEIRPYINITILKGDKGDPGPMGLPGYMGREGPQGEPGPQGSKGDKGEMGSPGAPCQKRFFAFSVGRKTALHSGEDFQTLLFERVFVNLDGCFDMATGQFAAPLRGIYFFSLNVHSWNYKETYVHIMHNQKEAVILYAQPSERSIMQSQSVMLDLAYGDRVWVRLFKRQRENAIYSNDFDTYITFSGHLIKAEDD", "experiment": "ProtoArray, GST-treated control array"}, "[3]": {"target": "DNTT-deoxynucleotidyltransferase, terminal (DNTT), transcript variant 1 (human) (UniProt P04053)", "sequence (P04053 whole entry, change not shown)": "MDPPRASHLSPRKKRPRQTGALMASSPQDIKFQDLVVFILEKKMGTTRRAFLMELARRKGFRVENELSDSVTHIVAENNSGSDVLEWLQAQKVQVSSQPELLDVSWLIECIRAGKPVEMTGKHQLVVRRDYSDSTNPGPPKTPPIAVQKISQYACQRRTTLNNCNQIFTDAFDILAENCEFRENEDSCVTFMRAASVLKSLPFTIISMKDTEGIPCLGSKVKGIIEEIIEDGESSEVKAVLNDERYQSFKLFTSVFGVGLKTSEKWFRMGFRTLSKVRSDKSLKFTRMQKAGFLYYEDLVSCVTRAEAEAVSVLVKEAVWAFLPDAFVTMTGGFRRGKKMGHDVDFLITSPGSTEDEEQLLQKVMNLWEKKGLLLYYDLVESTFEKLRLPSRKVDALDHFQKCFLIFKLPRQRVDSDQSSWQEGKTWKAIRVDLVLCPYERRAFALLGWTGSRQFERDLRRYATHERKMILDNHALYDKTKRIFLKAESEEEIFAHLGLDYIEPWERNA", "experiment": "ProtoArray, GST-treated control array"}, "[4]": {"target": "NME1-non-metastatic cells 1, protein (NM23A) expressed in (NME1), transcript variant 2 (human) (UniProt P15531)", "sequence (P15531 whole entry, change not shown)": "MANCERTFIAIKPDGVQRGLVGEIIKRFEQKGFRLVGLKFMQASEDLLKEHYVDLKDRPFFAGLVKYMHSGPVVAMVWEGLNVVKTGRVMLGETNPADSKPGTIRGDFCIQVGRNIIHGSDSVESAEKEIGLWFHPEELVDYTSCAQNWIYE", "experiment": "ProtoArray, GST-treated control array"}, "[5]": {"target": "GYPC-glycophorin C (Gerbich blood group) (GYPC), transcript variant 2 (human) (UniProt P04921)", "sequence (P04921 other isoform, or with tags, fused parts or gaps mutant)": "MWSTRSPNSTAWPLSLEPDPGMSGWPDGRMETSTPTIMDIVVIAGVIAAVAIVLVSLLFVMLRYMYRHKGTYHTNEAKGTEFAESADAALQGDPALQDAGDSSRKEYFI", "experiment": "ProtoArray, GST-treated control array"}, "[6]": {"target": "DYNC2LI1-dynein, cytoplasmic 2, light intermediate chain 1, mRNA (cDNA clone MGC:12166 IMAGE:3828551), complete cds (human) (UniProt Q8TCX1)", "experiment": "ProtoArray, GST-treated control array"}, "[7]": {"target": "GPX5-glutathione peroxidase 5 (epididymal androgen-related protein) (GPX5), transcript variant 2, mRNA. (human) (UniProt O75715)", "sequence (O75715 other isoform, or with tags, fused parts or gaps mutant)": "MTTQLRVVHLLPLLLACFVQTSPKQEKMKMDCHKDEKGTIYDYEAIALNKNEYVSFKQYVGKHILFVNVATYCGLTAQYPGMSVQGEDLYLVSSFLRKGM", "experiment": "ProtoArray, GST-treated control array"}, "[8]": {"target": "VPS29-vacuolar protein sorting 29 homolog (S. cerevisiae) (VPS29), transcript variant 1 (human) (UniProt Q9UBQ0)", "experiment": "ProtoArray, GST-treated control array"}, "[9]": {"target": "PPARG-peroxisome proliferator-activated receptor gamma (PPARG), transcript variant 4 (human) (UniProt P37231)", "sequence (P37231 29-505, change not shown)": "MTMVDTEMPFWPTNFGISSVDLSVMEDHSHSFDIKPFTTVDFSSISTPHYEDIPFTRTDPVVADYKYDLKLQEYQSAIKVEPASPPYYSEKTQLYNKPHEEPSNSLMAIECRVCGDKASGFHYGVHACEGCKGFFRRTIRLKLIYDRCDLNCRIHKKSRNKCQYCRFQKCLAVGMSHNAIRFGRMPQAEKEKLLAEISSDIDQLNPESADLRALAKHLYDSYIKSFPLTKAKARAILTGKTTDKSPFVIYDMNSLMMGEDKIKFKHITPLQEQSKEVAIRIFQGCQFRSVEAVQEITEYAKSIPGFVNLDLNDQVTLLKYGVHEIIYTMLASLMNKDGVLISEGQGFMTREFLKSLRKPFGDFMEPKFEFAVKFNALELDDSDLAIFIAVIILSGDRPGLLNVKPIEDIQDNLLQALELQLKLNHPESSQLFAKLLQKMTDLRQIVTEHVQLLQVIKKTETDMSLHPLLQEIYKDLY", "experiment": "ProtoArray, GST-treated control array"}, "[10]": {"target": "AP1S1-adaptor-related protein complex 1, sigma 1 subunit (AP1S1), transcript variant 1 (human) (UniProt P61966)", "sequence (P61966 whole entry, change not shown, one chain of several)": "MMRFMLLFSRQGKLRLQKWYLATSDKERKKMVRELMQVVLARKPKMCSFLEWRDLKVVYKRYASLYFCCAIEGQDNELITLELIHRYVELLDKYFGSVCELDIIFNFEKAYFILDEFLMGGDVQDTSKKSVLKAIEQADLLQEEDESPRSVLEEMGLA", "experiment": "ProtoArray, GST-treated control array"}, "[11]": {"target": "CDK10-cyclin-dependent kinase (CDC2-like) 10 (CDK10), transcript variant a (human) (UniProt Q15131)", "sequence (Q15131 whole entry, change not shown)": "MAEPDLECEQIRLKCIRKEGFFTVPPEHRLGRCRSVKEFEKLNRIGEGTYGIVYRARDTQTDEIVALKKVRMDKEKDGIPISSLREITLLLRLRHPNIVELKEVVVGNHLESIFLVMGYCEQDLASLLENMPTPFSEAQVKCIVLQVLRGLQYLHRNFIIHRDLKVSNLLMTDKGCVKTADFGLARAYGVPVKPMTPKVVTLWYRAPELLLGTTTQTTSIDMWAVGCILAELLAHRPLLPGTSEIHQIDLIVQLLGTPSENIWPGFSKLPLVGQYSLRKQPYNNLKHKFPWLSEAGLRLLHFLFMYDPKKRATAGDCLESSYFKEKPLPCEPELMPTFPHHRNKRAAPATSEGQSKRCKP", "experiment": "ProtoArray, GST-treated control array"}, "[12]": {"target": "MRPL21-mitochondrial ribosomal protein L21 (MRPL21), nuclear gene encoding mitochondrial protein, transcript variant 1 (human) (UniProt Q7Z2W9)", "experiment": "ProtoArray, GST-treated control array"}, "[13]": {"target": "PAEP-progestagen-associated endometrial protein (placental protein 14, pregnancy-associated endometrial alpha-2-globulin, alpha uterine protein), transcript variant 2 (PAEP) (human) (UniProt P09466)", "sequence (P09466 19-180, change not shown)": "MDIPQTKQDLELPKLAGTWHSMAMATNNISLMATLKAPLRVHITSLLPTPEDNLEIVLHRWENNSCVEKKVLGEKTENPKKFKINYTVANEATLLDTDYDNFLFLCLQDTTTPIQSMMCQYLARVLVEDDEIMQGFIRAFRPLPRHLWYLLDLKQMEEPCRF", "experiment": "ProtoArray, GST-treated control array"}, "[14]": {"target": "ACSL4-acyl-CoA synthetase long-chain family member 4 (ACSL4), transcript variant 2 (human) (UniProt O60488)", "experiment": "ProtoArray, GST-treated control array"}, "[15]": {"target": "NME7-non-metastatic cells 7, protein expressed in (nucleoside-diphosphate kinase) (NME7), transcript variant 2 (human) (UniProt Q9Y5B8)", "sequence (Q9Y5B8 37-376, change not shown)": "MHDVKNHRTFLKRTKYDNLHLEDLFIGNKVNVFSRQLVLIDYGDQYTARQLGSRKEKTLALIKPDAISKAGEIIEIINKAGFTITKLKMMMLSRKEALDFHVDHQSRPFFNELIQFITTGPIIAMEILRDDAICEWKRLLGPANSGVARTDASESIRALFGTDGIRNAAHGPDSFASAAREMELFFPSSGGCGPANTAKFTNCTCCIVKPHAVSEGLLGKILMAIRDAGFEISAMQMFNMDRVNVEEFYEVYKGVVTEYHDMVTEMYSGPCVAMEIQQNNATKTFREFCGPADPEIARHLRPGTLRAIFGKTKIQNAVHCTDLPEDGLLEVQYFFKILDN", "experiment": "ProtoArray, GST-treated control array"}, "[16]": {"target": "CALN1-calneuron 1 (CALN1), transcript variant 1 (human) (UniProt Q9BXU9)", "sequence (Q9BXU9 whole entry, change not shown)": "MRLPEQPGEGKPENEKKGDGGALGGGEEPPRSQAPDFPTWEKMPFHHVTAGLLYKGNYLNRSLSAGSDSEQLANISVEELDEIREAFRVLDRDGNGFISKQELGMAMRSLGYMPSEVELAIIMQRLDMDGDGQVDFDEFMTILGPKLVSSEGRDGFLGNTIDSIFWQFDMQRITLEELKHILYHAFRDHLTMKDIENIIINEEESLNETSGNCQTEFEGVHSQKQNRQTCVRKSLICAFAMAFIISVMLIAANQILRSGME", "experiment": "ProtoArray, GST-treated control array"}, "[17]": {"target": "TEAD4-TEA domain family member 4 (TEAD4), transcript variant 3 (human) (UniProt Q15561)", "sequence (Q15561 130-434, change not shown)": "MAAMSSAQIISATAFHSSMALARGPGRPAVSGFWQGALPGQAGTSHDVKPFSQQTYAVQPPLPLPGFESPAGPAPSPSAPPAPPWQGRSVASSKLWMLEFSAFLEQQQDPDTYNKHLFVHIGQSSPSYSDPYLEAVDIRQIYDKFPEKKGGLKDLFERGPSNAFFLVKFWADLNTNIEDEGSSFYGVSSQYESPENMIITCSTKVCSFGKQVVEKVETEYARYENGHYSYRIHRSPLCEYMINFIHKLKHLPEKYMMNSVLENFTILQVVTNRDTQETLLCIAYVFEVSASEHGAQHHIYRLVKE", "experiment": "ProtoArray, GST-treated control array"}, "[18]": {"target": "T1, TMEM32-transmembrane protein 32 (TMEM32) (human) (UniProt Q8N4V1)", "T1 sequence (looked up)": "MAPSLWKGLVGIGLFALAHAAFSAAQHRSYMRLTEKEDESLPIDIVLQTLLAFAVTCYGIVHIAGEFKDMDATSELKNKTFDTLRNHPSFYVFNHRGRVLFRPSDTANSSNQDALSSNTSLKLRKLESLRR", "experiment": "ProtoArray, GST-treated control array"}, "[19]": {"target": "LARP6-La ribonucleoprotein domain family, member 6 (LARP6), transcript variant 2 (human) (UniProt Q9BRS8)", "sequence (Q9BRS8 other isoform, or with tags, fused parts or gaps mutant)": "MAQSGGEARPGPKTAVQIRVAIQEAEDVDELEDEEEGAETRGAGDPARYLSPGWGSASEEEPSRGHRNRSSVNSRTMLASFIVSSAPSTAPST", "experiment": "ProtoArray, GST-treated control array"}, "[20]": {"target": "CRB3-crumbs homolog 3 (Drosophila) (CRB3), transcript variant 2 (human) (UniProt Q9BUF7)", "sequence (Q9BUF7 27-120, change not shown)": "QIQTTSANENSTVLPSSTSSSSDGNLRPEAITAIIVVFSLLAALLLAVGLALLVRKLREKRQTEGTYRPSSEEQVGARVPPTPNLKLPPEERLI", "experiment": "ProtoArray, GST-treated control array"}, "[21]": {"target": "PHF20L1-PHD finger protein 20-like 1 (PHF20L1), transcript variant 3 (human) (UniProt A8MW92)", "sequence (A8MW92 other isoform, or with tags, fused parts or gaps mutant)": "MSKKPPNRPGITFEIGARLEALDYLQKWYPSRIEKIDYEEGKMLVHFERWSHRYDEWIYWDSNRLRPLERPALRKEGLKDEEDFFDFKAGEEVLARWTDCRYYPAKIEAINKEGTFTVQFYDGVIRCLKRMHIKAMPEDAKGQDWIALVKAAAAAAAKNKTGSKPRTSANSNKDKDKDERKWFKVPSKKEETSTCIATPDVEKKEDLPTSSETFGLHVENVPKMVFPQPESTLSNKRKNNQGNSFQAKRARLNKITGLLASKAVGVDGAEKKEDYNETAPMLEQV", "experiment": "ProtoArray, GST-treated control array"}, "[22]": {"target": "ZNF695-zinc finger protein 695 (ZNF695) (human) (UniProt Q8IW36)", "experiment": "ProtoArray, GST-treated control array"}, "[23]": {"target": "WDR45-WD repeat domain 45 (WDR45), transcript variant 1 (human) (UniProt Q9Y484)", "experiment": "ProtoArray, GST-treated control array"}, "[24]": {"target": "RTN1-reticulon 1 (RTN1), transcript variant 3 (human) (UniProt Q16799)", "sequence (Q16799 other isoform, or with tags, fused parts or gaps mutant)": "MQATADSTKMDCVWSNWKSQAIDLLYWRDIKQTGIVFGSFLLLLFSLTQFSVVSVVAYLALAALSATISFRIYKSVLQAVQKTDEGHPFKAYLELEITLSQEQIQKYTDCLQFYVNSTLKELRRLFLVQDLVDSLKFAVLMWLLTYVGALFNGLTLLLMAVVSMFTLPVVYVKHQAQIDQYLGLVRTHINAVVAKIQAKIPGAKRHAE", "experiment": "ProtoArray, GST-treated control array"}, "[25]": {"target": "BLCAP, G9a-methylated (human) (UniProt P62952)", "sequence (P62952 whole entry, the tested form may be a part)": "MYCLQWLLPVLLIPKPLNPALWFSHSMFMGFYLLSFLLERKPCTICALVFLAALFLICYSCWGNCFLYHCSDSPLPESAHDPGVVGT", "experiment": "ProtoArray methylated with G9a SET domain"}, "[26]": {"target": "CD79A, G9a-methylated (human) (UniProt P11912)", "sequence (P11912 33-226 limits assumed)": "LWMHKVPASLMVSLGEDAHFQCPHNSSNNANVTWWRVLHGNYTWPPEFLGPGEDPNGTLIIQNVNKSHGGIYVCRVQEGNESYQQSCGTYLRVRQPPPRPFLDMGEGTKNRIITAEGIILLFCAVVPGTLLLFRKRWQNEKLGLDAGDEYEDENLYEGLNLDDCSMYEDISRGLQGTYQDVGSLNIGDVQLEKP", "experiment": "ProtoArray methylated with G9a SET domain"}, "[27]": {"target": "ARL6IP1, G9a-methylated (human) (UniProt Q15041)", "sequence (Q15041 whole entry, the tested form may be a part)": "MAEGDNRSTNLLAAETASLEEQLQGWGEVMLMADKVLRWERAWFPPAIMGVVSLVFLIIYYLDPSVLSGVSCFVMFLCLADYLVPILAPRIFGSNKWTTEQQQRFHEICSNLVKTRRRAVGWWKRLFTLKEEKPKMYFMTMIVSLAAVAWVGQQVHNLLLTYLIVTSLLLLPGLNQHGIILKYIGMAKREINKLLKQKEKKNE", "experiment": "ProtoArray methylated with G9a SET domain"}, "[28]": {"target": "C1QTNF6, G9a-methylated (human) (UniProt Q9BXI9)", "sequence (Q9BXI9 47-278 limits assumed)": "as the sequence (Q9BXI9 47-278, change not shown) above", "experiment": "ProtoArray methylated with G9a SET domain"}}}
{"substance": "3× Flag-3×MBT (designed binder)", "values": [{"measurement": "GST Average SNR", "setting": "[1]", "value": 0.282}, {"measurement": "GST Average SNR", "setting": "[2]", "value": -0.38}, {"measurement": "GST Average SNR", "setting": "[3]", "value": 0.378}, {"measurement": "GST Average SNR", "setting": "[4]", "value": 1.06}, {"measurement": "GST Average SNR", "setting": "[5]", "value": 0.081}, {"measurement": "GST Average SNR", "setting": "[6]", "value": -0.778}, {"measurement": "GST Average SNR", "setting": "[7]", "value": -0.0425}, {"measurement": "GST Average SNR", "setting": "[8]", "value": 1.09}, {"measurement": "GST Average SNR", "setting": "[9]", "value": -0.436}, {"measurement": "GST Average SNR", "setting": "[10]", "value": 1.2}, {"measurement": "GST Average SNR", "setting": "[11]", "value": 0.366}, {"measurement": "GST Average SNR", "setting": "[12]", "value": 1.41}, {"measurement": "GST Average SNR", "setting": "[13]", "value": 0.998}, {"measurement": "GST Average SNR", "setting": "[14]", "value": 1.41}, {"measurement": "GST Average SNR", "setting": "[15]", "value": 0.543}, {"measurement": "GST Average SNR", "setting": "[16]", "value": -0.055}, {"measurement": "GST Average SNR", "setting": "[17]", "value": 0.753}, {"measurement": "GST Average SNR", "setting": "[18]", "value": 1.5}, {"measurement": "GST Average SNR", "setting": "[19]", "value": -1.03}, {"measurement": "GST Average SNR", "setting": "[20]", "value": -0.25}, {"measurement": "GST Average SNR", "setting": "[21]", "value": 1.13}, {"measurement": "GST Average SNR", "setting": "[22]", "value": 1.5}, {"measurement": "GST Average SNR", "setting": "[23]", "value": 1.35}, {"measurement": "GST Average SNR", "setting": "[24]", "value": 0.954}, {"measurement": "G9a Average SNR", "setting": "[25]", "value": 26.4}, {"measurement": "G9a Average SNR", "setting": "[26]", "value": 13.8}, {"measurement": "G9a Average SNR", "setting": "[27]", "value": 21.8}, {"measurement": "G9a Average SNR", "setting": "[28]", "value": 16.4}]}
